Test results reported in paper PMC9911869.

Target: recombinant pullulanase from Manihot esculenta Crantz (rMePUL), mature form without the transit peptide (Manihot esculenta Crantz (cassava))
Assay: SEC; purified rMePUL on an MAbPac SEC-1 column (4 x 300 mm), 25 mM phosphate buffer pH 6.8 with 300 mM NaCl, 0.2 mL/min, 30°C, A280; calibrated with Bio-Rad gel filtration standards; monomer and dimer peaks

stoichiometry N: 2
Substance: recombinant pullulanase from Manihot esculenta Crantz (rMePUL), mature form without the transit peptide (enzyme)
